Source: patent publication US20200292534A1
Residue numbers refer to the chain shown, from its start.

Assays:
[1] = molecular target: T1, NLpoly11S; experiment: luminescence complementation titration, one-site specific binding; conditions: chains peptide; modification not given
T1 chain: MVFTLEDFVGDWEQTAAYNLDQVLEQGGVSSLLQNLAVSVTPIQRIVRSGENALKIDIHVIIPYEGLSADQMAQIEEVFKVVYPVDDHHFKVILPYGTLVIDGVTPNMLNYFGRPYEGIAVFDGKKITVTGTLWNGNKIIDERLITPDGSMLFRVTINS

[2] = substrate: CP Nluc; experiment: cell-based or functional assay
[3] = molecular target: T2, VTG; experiment: luminescence complementation; conditions: chains peptide; modification not given
T2 chain: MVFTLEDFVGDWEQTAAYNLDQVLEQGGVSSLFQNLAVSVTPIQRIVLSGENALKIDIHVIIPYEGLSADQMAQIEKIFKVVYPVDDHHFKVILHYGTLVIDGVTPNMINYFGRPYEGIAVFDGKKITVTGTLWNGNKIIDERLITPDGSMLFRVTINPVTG

[4] = molecular target: T3, NLpoly 5P; experiment: luminescence complementation; conditions: chains peptide; modification not given
T3 chain: T1 chain with L33F, R48L, E77K, V78I, P95H, L109I, S159P

[5] = molecular target: T4, ATG; experiment: luminescence complementation; conditions: chains peptide; modification not given
T4 chain: T2 chain with V160A

[6] = molecular target: T5, GTA; experiment: luminescence complementation; conditions: chains peptide; modification not given
T5 chain: T2 chain with V160G, G162A

[7] = molecular target: T1, NLpoly11S; experiment: luminescence complementation titration, one-site specific binding fit
[8] = molecular target: T1, NLpoly11S; experiment: luminescence complementation titration (E. coli lysate NLpoly, synthetic NLpep), one site-specific binding fit
[9] = molecular target: VT; experiment: luminescence complementation; conditions: chains peptide; modification not given
[10] = molecular target: AA; experiment: luminescence complementation; conditions: chains peptide; modification not given
[11] = molecular target: VA; experiment: luminescence complementation; conditions: chains peptide; modification not given
[12] = molecular target: T1, NLpoly11S; experiment: luminescence complementation titration, one-site specific binding; conditions: chains peptide; modification not given
[13] = molecular target: T1, NLpoly11S; experiment: as above; conditions: chains peptide; modification not given
[14] = molecular target: T3, NLpoly 5P; experiment: luminescence complementation; HeLa lysate; conditions: chains peptide; modification not given

B1: NLpep104 (peptide)
chain: VEGYRLFEKIS
Kd [1]: 1740 nM

B2: Gln-162 (peptide)
peptide: VSGWQLFKKIS
modifications: not checked
inhibition of the luminescence generated by CP Nluc [2]: > 1 log

B3: Ala-162 (peptide)
peptide: VSGWALFKKIS
modifications: not checked
inhibition of the luminescence generated by CP Nluc [2]: > 2 logs

B4: NLpep82 (peptide)
chain: GWRLFKKISN
Kd [3]: 276 nM | Kd [4]: 215 nM | Kd [5]: 230 nM | Kd [6]: 254 nM

B5: NLpep99 (peptide)
chain: VTGYRLFEKIS
Kd [1]: 266 nM

B6: array2.54 (peptide)
peptide: VTGYRLFEEEL
modifications: not checked
Bmax [7]: 251000 | Kd [7]: 68300 nM

B7: NLpep101 (peptide)
chain: VTGYRLFEKES
Kd [1]: 3120 nM

B8: NLpep86 (peptide)
peptide: VSGWRLFKKIS
modifications: not checked
Kd [8]: < 1 nM | fold improved affinity over NLpolyWT:NLpepWT [8]: 10000 fold

B9: NLpep128 (peptide)
chain: VTGYRLFEKIL
Kd [1]: 237 nM

B10: NLpep81 (peptide)
chain: SGWRLFKKISN
Kd [9]: 137 nM | Kd [4]: 110 nM | Kd [10]: 115 nM | Kd [11]: 132 nM

B11: NLpep78 (peptide)
chain: NVSGWRLFKKISN
Kd [1]: 2.39 nM | Kd [12]: 9.56 nM

B12: NLpep79 (peptide)
chain: NVTGYRLFKKISN
Kd [1]: 20.3 nM | Kd [13]: 13.1 nM

B13: NLpep80 (peptide)
chain: VSGWRLFKKISN
Kd [14]: 1 nM | Kd [8]: < 1 nM | fold improved affinity over NLpolyWT:NLpepWT [8]: 10000 fold
